Data from publication doi:10.1101/2020.05.19.103432.

Columns and labels:
[1] = biological target: GltPh K55C/C321A/A364C mutant, cross-linked with HgCl2 (GltPh^IFS) (UniProt O59010); assay: cryo-EM structure
[2] = biological target: GltPh, fully functional seven-histidine mutant, referred to as wildtype (WT) (UniProt O59010); assay: cryo-EM structure

Substance: GltPh K55C/C321A/A364C mutant, cross-linked with HgCl2 (GltPh^IFS) (from UniProt O59010 1-425) (natural protein)
- stoichiometry N [1]: 3

Substance: GltPh, fully functional seven-histidine mutant, referred to as wildtype (WT) (from UniProt O59010 1-417) (natural protein)
- stoichiometry N [2]: 3
